# Laboratory results from article PMC3597701.
# Target: origin recognition complex (ORC) (S. cerevisiae) (UniProt P54784)
# Assay: cross-linking
substance,measurement,value
"MCM2–7 (mini-chromosome maintenance proteins 2–7) with a single HA tag at the N-terminus of Mcm3, P29469;P24279;P30665;P29496;P53091;P38132",stoichiometry N (MCM2–7 hexamer per ORC),1
